Experimental data as given in IntAct's records for PubMed 17632125.

B1: Ubiquitin carboxyl-terminal hydrolase 3 (Saccharomyces cerevisiae), Q01477 (parent)
chain: MNMQDANKEESYSMYPKTSSPPPPTPTNMQIPIYQAPLQMYGYTQAPYLYPTQIPAYSFNMVNQNQPIYHQSGSPHHLPPQNNINGGSTTNNNNINKKKWHSNGITNNNGSSGNQGANSSGSGMSYNKSHTYHHNYSNNHIPMMASPNSGSNAGMKKQTNSSNGNGSSATSPSYSSYNSSSQYDLYKFDVTKLKNLKENSSNLIQLPLFINTTEAEFAAASVQRYELNMKALNLNSESLENSSVEKSSAHHHTKSHSIPKHNEEVKTETHGEEEDAHDKKPHASKDAHELKKKTEVKKEDAKQDRNEKVIQEPQATVLPVVDKKEPEESVEENTSKTSSPSPSPPAAKSWSAIASDAIKSRQASNKTVSGSMVTKTPISGTTAGVSSTNMAAATIGKSSSPLLSKQPQKKDKKYVPPSTKGIEPLGSIALRMCFDPDFISYVLRNKDVENKIPVHSIIPRGIINRANICFMSSVLQVLLYCKPFIDVINVLSTRNTNSRVGTSSCKLLDACLTMYKQFDKETYEKKFLENADDAEKTTESDAKKSSKSKSFQHCATADAVKPDEFYKTLSTIPKFKDLQWGHQEDAEEFLTHLLDQLHEELISAIDGLTDNEIQNMLQSINDEQLKVFFIRNLSRYGKAEFIKNASPRLKELIEKYGVINDDSTEENGWHEVSGSSKRGKKTKTAAKRTVEIVPSPISKLFGGQFRSVLDIPNNKESQSITLDPFQTIQLDISDAGVNDLETAFKKFSEYELLPFKSSSGNDVEAKKQTFIDKLPQVLLIQFKRFSFINNVNKDNAMTNYNAYNGRIEKIRKKIKYGHELIIPEESMSSITLKNNTSGIDDRRYKLTGVIYHHGVSSDGGHYTADVYHSEHNKWYRIDDVNITELEDDDVLKGGEEASDSRTAYILMYQKRN
partner: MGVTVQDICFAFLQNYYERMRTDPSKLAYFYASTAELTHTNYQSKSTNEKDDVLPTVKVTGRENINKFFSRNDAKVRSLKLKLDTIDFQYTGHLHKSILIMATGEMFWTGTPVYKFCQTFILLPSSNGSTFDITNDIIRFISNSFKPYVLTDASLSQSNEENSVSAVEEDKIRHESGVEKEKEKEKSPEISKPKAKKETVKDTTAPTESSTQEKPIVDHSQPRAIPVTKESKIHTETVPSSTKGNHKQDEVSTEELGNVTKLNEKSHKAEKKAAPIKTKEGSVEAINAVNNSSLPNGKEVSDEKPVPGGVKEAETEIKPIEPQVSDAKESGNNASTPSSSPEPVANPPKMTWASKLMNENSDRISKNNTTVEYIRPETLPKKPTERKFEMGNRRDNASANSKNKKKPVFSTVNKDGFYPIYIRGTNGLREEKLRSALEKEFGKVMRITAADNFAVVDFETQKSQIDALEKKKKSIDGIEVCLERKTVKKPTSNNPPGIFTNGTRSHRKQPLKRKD
B2: UBP3-associated protein BRE5 (Saccharomyces cerevisiae), P53741 (parent)
chain: B1 partner
partner: B1 chain

Variants of: B1
Details: with bre5_yeast BRE5, P53741

effect of a mutation on the interaction | Variant
with no effect | F217A
with no effect | E214A
with no effect | E216A
with no effect | T212A
with no effect | R224A
decreasing interaction strength | N211A;F217A

Further lines, the variant ahead of its results:

Variant | effect of a mutation on the interaction
N211A | decreasing interaction strength
L208A;F209A;I210A;N211A;F217A | disrupting interaction strength
I210A;F217A | decreasing interaction strength
L208A;F209A;I210A;N211A | decreasing interaction strength
I210A | decreasing interaction strength
L208A | with no effect
F209A | with no effect
L208A;F209A | decreasing interaction strength

Variants of: B2
Details: with ubp3_yeast UBP3, Q01477

Variant | effect of a mutation on the interaction
MGVTVQDICFAFLQNYAERMRTDPSKLAYFYASTAELTHTNYQSKSTNEKDDVLPTVKVTGRENINKFFSRNDAKVRSLKLALDTIDFQYTGHLHKSILIMATGEMFWTGTPVYKFCQTFILLPSSNGSTFDITNDIIRFISNSFKPYVLTDASLSQSNEENSVSAVEEDKIRHESGVEKEKEKEKSPEISKPKAKKETVKDTTAPTESSTQEKPIVDHSQPRAIPVTKESKIHTETVPSSTKGNHKQDEVSTEELGNVTKLNEKSHKAEKKAAPIKTKEGSVEAINAVNNSSLPNGKEVSDEKPVPGGVKEAETEIKPIEPQVSDAKESGNNASTPSSSPEPVANPPKMTWASKLMNENSDRISKNNTTVEYIRPETLPKKPTERKFEMGNRRDNASANSKNKKKPVFSTVNKDGFYPIYIRGTNGLREEKLRSALEKEFGKVMRITAADNFAVVDFETQKSQIDALEKKKKSIDGIEVCLERKTVKKPTSNNPPGIFTNGTRSHRKQPLKRKD [Y17A;K82A] | decreasing interaction strength

Variants of: B2
Details: with ubp3_yeast UBP3, Q01477
Remark: another data set of the same source

Variant | effect of a mutation on the interaction
MGVTVQDICFAFLQNYYERMRTDPSKLAYFYASTAELTHTNYQSKSTNEKDDVLPTVKVTGRENINKFFSRNDAKVRSLALKLDTIDFQYTGHLHKSILIMATGEMFWTGTPVYKFCQTFILLPSSNGSTFDITNDIIRFISNSFKPYVLTDASLSQSNEENSVSAVEEDKIRHESGVEKEKEKEKSPEISKPKAKKETVKDTTAPTESSTQEKPIVDHSQPRAIPVTKESKIHTETVPSSTKGNHKQDEVSTEELGNVTKLNEKSHKAEKKAAPIKTKEGSVEAINAVNNSSLPNGKEVSDEKPVPGGVKEAETEIKPIEPQVSDAKESGNNASTPSSSPEPVANPPKMTWASKLMNENSDRISKNNTTVEYIRPETLPKKPTERKFEMGNRRDNASANSKNKKKPVFSTVNKDGFYPIYIRGTNGLREEKLRSALEKEFGKVMRITAADNFAVVDFETQKSQIDALEKKKKSIDGIEVCLERKTVKKPTSNNPPGIFTNGTRSHRKQPLKRKD [K80A] | with no effect
MGVTVQDICFAFLQNYYERMRTDPSKLAYFYASTAELTHTNYQSKSTNEKDDVLPTVKVTGRENINKFFSRNDAKVRSLKLALDTIDFQYTGHLHKSILIMATGEMFWTGTPVYKFCQTFILLPSSNGSTFDITNDIIRFISNSFKPYVLTDASLSQSNEENSVSAVEEDKIRHESGVEKEKEKEKSPEISKPKAKKETVKDTTAPTESSTQEKPIVDHSQPRAIPVTKESKIHTETVPSSTKGNHKQDEVSTEELGNVTKLNEKSHKAEKKAAPIKTKEGSVEAINAVNNSSLPNGKEVSDEKPVPGGVKEAETEIKPIEPQVSDAKESGNNASTPSSSPEPVANPPKMTWASKLMNENSDRISKNNTTVEYIRPETLPKKPTERKFEMGNRRDNASANSKNKKKPVFSTVNKDGFYPIYIRGTNGLREEKLRSALEKEFGKVMRITAADNFAVVDFETQKSQIDALEKKKKSIDGIEVCLERKTVKKPTSNNPPGIFTNGTRSHRKQPLKRKD [K82A] | with no effect
MGVTVQDICFAFLQNYAERMRTDPSKLAYFYASTAELTHTNYQSKSTNEKDDVLPTVKVTGRENINKFFSRNDAKVRSLKLKLDTIDFQYTGHLHKSILIMATGEMFWTGTPVYKFCQTFILLPSSNGSTFDITNDIIRFISNSFKPYVLTDASLSQSNEENSVSAVEEDKIRHESGVEKEKEKEKSPEISKPKAKKETVKDTTAPTESSTQEKPIVDHSQPRAIPVTKESKIHTETVPSSTKGNHKQDEVSTEELGNVTKLNEKSHKAEKKAAPIKTKEGSVEAINAVNNSSLPNGKEVSDEKPVPGGVKEAETEIKPIEPQVSDAKESGNNASTPSSSPEPVANPPKMTWASKLMNENSDRISKNNTTVEYIRPETLPKKPTERKFEMGNRRDNASANSKNKKKPVFSTVNKDGFYPIYIRGTNGLREEKLRSALEKEFGKVMRITAADNFAVVDFETQKSQIDALEKKKKSIDGIEVCLERKTVKKPTSNNPPGIFTNGTRSHRKQPLKRKD [Y17A] | with no effect
MGVTVQDICFAFLQNYYERMRTDPSKLAYFYASTAELTHTNYQSKSTNEKDDVLPTVKVTGRENINKFFSRNDAKVRSLKLKLDTIDFQYTGHLHKSILIMATGAMFWTGTPVYKFCQTFILLPSSNGSTFDITNDIIRFISNSFKPYVLTDASLSQSNEENSVSAVEEDKIRHESGVEKEKEKEKSPEISKPKAKKETVKDTTAPTESSTQEKPIVDHSQPRAIPVTKESKIHTETVPSSTKGNHKQDEVSTEELGNVTKLNEKSHKAEKKAAPIKTKEGSVEAINAVNNSSLPNGKEVSDEKPVPGGVKEAETEIKPIEPQVSDAKESGNNASTPSSSPEPVANPPKMTWASKLMNENSDRISKNNTTVEYIRPETLPKKPTERKFEMGNRRDNASANSKNKKKPVFSTVNKDGFYPIYIRGTNGLREEKLRSALEKEFGKVMRITAADNFAVVDFETQKSQIDALEKKKKSIDGIEVCLERKTVKKPTSNNPPGIFTNGTRSHRKQPLKRKD [E105A] | with no effect
